Assay results reported in US20170335310A1.

Columns and labels:
[1] = molecular target: C3b (UniProt P01024); experiment: SPR (Biacore), FH flowed over C3b amine-coupled to a CM5 chip; steady-state fit to two flow cells (1540 and 3030 RU C3b) together
[2] = molecular target: C3b (UniProt P01024); experiment: cell-based or functional assay

Chain of C3b (P01024 749-1663 limits assumed, chain 1 of 2): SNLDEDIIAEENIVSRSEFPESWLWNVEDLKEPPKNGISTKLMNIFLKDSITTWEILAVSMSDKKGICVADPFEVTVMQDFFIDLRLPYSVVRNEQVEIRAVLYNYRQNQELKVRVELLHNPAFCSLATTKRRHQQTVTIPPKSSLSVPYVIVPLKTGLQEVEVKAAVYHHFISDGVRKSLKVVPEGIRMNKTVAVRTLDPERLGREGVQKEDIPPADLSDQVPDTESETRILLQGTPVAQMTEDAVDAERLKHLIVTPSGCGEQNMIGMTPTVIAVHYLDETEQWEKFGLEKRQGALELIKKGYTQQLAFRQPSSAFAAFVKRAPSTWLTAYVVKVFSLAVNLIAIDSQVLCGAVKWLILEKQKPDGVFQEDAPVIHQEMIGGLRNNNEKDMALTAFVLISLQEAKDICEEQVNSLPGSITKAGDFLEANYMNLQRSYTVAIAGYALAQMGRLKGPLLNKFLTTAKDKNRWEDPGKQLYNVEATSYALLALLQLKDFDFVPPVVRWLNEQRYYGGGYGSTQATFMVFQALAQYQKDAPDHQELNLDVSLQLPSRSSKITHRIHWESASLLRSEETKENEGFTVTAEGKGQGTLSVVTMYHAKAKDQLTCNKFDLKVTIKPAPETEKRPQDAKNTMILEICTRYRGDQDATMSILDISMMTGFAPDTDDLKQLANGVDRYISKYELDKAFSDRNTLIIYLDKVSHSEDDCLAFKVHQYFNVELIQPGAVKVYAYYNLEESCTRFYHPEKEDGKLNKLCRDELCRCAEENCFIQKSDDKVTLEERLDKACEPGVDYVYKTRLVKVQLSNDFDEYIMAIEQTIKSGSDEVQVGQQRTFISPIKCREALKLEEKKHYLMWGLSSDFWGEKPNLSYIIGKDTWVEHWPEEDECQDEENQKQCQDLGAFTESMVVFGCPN
Chain of C3b (P01024 23-667 limits assumed, chain 2 of 2): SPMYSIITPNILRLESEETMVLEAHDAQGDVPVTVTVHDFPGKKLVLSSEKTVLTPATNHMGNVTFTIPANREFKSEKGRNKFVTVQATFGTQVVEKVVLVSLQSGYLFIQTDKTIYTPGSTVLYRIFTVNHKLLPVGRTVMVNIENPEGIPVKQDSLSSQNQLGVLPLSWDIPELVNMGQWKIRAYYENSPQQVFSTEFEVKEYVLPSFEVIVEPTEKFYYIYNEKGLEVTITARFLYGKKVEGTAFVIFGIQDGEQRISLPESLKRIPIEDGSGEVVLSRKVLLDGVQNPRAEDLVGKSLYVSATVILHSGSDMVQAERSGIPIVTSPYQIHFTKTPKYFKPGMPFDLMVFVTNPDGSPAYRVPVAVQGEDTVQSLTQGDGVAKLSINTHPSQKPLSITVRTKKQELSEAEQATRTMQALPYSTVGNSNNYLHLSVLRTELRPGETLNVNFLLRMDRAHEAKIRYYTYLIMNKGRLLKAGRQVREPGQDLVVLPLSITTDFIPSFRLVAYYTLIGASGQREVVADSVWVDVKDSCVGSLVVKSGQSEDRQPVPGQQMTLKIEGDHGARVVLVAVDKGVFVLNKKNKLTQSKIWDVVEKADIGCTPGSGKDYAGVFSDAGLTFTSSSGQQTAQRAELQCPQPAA

Kd [1]: 1400 nM
cofactor for factor I-catalysed cleavage of C3b to iC3b (SDS-PAGE, Coomassie blue) [2]: < 5 min
Substance: recombinant human complement factor H produced in Pichia pastoris from codon-optimised DNA (Example 2) (from UniProt P08603 19-1231)
